What was measured:
[1] = molecular target: T1, human C1q protein (Calbiochem) (human, UniProt P02745 23-245; P02746 28-253; P02747 29-245); experiment: ELISA, antibody on the plate, hC1q 3 µg/mL
T1 construct: bought; also called hC1q

[2] = molecular target: T2, hCTLA4-His-BAP (human CTLA4 extracellular region with C-terminal His-tag and BAP-tag) (human, biotin on the BAP-tag); experiment: SPR 37C, hCTLA4 1000 nM, ATP 100 µM; ATP 100 µM; binding amount at 1000 nM hCTLA4
T2 construct: also called hCTLA4-His-Biotin

[3] = molecular target: T2, hCTLA4-His-BAP (human CTLA4 …); experiment: SPR 37C, ATP 100 µM; ATP 100 µM
[4] = molecular target: T2, hCTLA4-His-BAP (human CTLA4 …); experiment: SPR 37C, hCTLA4 1000 nM, ATP 10 µM; ATP 10 µM; binding amount at 1000 nM hCTLA4
[5] = molecular target: T2, hCTLA4-His-BAP (human CTLA4 …); experiment: SPR 37C, hCTLA4 1000 nM, ATP 1 µM; ATP 1 µM; binding amount at 1000 nM hCTLA4
[6] = molecular target: T2, hCTLA4-His-BAP (human CTLA4 …); experiment: SPR 37C, ATP 10 µM; ATP 10 µM
[7] = molecular target: T2, hCTLA4-His-BAP (human CTLA4 …); experiment: SPR 37C, hCTLA4 1000 nM, no ATP; no ATP; binding amount at 1000 nM hCTLA4

T2 sequence (chain, as listed by the source limits assumed): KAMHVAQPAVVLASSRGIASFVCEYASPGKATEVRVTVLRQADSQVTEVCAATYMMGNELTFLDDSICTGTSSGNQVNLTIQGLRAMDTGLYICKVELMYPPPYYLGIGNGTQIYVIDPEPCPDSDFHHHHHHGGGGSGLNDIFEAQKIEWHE
T1 sequence (P02745 23-245 limits assumed, chain 1 of 3): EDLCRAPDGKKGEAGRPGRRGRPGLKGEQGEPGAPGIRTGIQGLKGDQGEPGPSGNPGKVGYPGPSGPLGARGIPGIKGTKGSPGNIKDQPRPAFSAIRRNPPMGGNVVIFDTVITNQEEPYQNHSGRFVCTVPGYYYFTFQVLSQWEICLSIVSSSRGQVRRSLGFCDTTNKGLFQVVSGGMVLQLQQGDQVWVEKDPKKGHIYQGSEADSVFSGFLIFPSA
T1 sequence (P02746 28-253 limits assumed, chain 2 of 3): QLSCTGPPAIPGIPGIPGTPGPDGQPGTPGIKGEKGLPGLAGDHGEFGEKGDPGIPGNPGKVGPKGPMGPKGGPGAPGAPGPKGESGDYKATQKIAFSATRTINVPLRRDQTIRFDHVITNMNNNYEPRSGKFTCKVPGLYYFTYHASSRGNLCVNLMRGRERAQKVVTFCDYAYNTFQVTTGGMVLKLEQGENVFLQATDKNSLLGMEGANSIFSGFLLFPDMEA
T1 sequence (P02747 29-245 limits assumed, chain 3 of 3): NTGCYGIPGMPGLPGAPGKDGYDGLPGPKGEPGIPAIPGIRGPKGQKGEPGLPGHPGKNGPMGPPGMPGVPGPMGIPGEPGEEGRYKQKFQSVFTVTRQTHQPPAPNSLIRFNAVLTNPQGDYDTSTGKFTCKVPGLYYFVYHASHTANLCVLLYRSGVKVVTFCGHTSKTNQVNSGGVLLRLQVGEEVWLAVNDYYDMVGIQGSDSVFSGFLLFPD

Binder | binding result [1] | Binding to Human CTLA4 [2] | Kd [3] [nM] | Binding to Human CTLA4 [4] | Binding to Human CTLA4 [5] | Kd [6] [nM] | Binding to Human CTLA4 [7]
H240-Kn462/L73-k0//H240-Hl441/L73-k0 (antibody, also called EGL-ART5; ART5; copies: 1 + 1 + 2) heavy 1: QDQLVQSGAEVKKPGASVKVSCKASGFNIKDTYIQWVRQAPGQGLEWMGRIDPLRKQTKYREKFEGRVTITADTSTNTAYMELSSLRSEDTAVYYCVRSGREFDYWGQGTLVTVSSASTKGPSVFPLAPSSKSTSGGTAALGCLVKDYFPEPVTVSWNSGALTSGVHTFPAVLQSSGLYSLSSVVTVPSSSLGTQTYICNVNHKPSNTKVDKKVEPKSCDKTHTCPPCPAPEFQWGPMVFLFPPKPKDVLMISRTPEVTCVVVDVSDEEPEVKFNWYVDGVEVHNAKTKPREEQYNATYRVVSVLPVLHQDWLNGKEYKCKVSNDALPAPIEKTISKAKGQPREPQVCTLPPSRDELTKNQVSLWCLVKGFYPSDIAVEWESNGQPENNYKTTPPVLDSDGSFFLYSKLTVDKSRWQQGNVFSCSVMHEALHNHYTQKSLSLSP heavy 2: QDQLVQSGAEVKKPGASVKVSCKASGFNIKDTYIQWVRQAPGQGLEWMGRIDPLRKQTKYREKFEGRVTITADTSTNTAYMELSSLRSEDTAVYYCVRSGREFDYWGQGTLVTVSSASTKGPSVFPLAPSSKSTSGGTAALGCLVKDYFPEPVTVSWNSGALTSGVHTFPAVLQSSGLYSLSSVVTVPSSSLGTQTYICNVNHKPSNTKVDKKVEPKSCDKTHTCPPCPAPELLAGPSVFLFPPKPKDVLMISRTPEVTCVVVDVSHEEPEVKFNWYVDGVEVHNAKTKPREEQYNATYRVVSVLPVLHQDWLNGKEYKCKVSNDALPAPIEETISKAKGQPREPQVYTLPPSRCELTKNQVSLSCAVKGFYPSDIAVEWESNGQPENNYKTTPPVLDSDGSFFLVSKLTVDKSRWQQGNVFSCSVMHEALHNHYTQKSLSLSP light: DIQMTQSPSSLSASVGDRVTITCRASQDIHKYIAWYQQKPGQAPRLLIQYTSTLQPGVPSRFSGSGSGTDYTFTISSLQPEDIATYYCLQYEQLRTFGGGTKVEIKRTVAAPSVFIFPPSDEQLKSGTASVVCLLNNFYPREAKVQWKVDNALQSGNSQESVTEQDSKDSTYSLSSTLTLSKADYEKHKVYACEVTHQGLSSPVTKSFNRGEC | binds | – | – | – | – | – | –
04H1207-G1m/04L1086-lam1 (antibody, human IgG1, lambda, V domains shown) VH: EVQLVESGGGLVKPGGSLRLSCAASGFTFSSKTMNWVRQAPGKGLEWVSSISTRSGYIYYAESVKGRFTISRDNAKNSLYLQMNSLRAEDTAVYYCARYGKREDMLWVFDYWGQGTLVTVSS VL: QSALTQPPSASGSPGQTVTISCDGPSTGVGDYNYVHWYQQHPGKAPKLMIYFTSKKPSGVPDRFSGSKSGNTASLTVSGLQAEDEADYFCQTYAAPLGPMFGGGTKLTVLG | – | 0.196 per unit amount of antibody | 59 | 0.137 per unit amount of antibody | 0.047 per unit amount of antibody | 330 | 0.013 per unit amount of antibody
04H1208-G1m/04L1086-lam1 (antibody, human IgG1, lambda, V domains shown) VH: EVQLVESGGGLVKPGGSLRLSCAASGFTFSSKTMNWVRQAPGKGLEWVSSISTRSGYIYYARSVKGRFTISRDNAKNSLYLQMNSLRAEDTAVYYCARYGKREDMLWVFDYWGQGTLVTVSS VL: QSALTQPPSASGSPGQTVTISCDGPSTGVGDYNYVHWYQQHPGKAPKLMIYFTSKKPSGVPDRFSGSKSGNTASLTVSGLQAEDEADYFCQTYAAPLGPMFGGGTKLTVLG | – | 0.17 per unit amount of antibody | 74 | 0.108 per unit amount of antibody | 0.03 per unit amount of antibody | 450 | 0.005 per unit amount of antibody

Continued, values first:

binding result [1] | Binding to Human CTLA4 [2] | Kd [3] [nM] | Binding to Human CTLA4 [4] | Binding to Human CTLA4 [5] | Kd [6] [nM] | Binding to Human CTLA4 [7] | Binder
binds | – | – | – | – | – | – | H240-Kn461/L73-k0//H240-Hl443/L73-k0 (antibody, also called EGL-ART8; ART8; copies: 1 + 1 + 2) heavy 1: QDQLVQSGAEVKKPGASVKVSCKASGFNIKDTYIQWVRQAPGQGLEWMGRIDPLRKQTKYREKFEGRVTITADTSTNTAYMELSSLRSEDTAVYYCVRSGREFDYWGQGTLVTVSSASTKGPSVFPLAPSSKSTSGGTAALGCLVKDYFPEPVTVSWNSGALTSGVHTFPAVLQSSGLYSLSSVVTVPSSSLGTQTYICNVNHKPSNTKVDKKVEPKSCDKTHTCPPCPAPEFQWGPMVFLFPPKPKDVLMISRTPEVTCVVVDVSDEEPEVKFNWYVDGVEVHNAKTKPREEQYNATYRVVSVLPVLHQDWLNGKEYKCKVSNDALPAPEEKTISKAKGQPREPQVCTLPPSRDELTKNQVSLWCLVKGFYPSDIAVEWESNGQPENNYKTTPPVLDSDGSFFLYSKLTVDKSRWQQGNVFSCSVMHEALHNHYTQKSLSLSP heavy 2: QDQLVQSGAEVKKPGASVKVSCKASGFNIKDTYIQWVRQAPGQGLEWMGRIDPLRKQTKYREKFEGRVTITADTSTNTAYMELSSLRSEDTAVYYCVRSGREFDYWGQGTLVTVSSASTKGPSVFPLAPSSKSTSGGTAALGCLVKDYFPEPVTVSWNSGALTSGVHTFPAVLQSSGLYSLSSVVTVPSSSLGTQTYICNVNHKPSNTKVDKKVEPKSCDKTHTCPPCPAPELLAGPSVFLFPPKPKDVLMISRTPEVTCVVVDVSHEEPEVKFNWYVDGVEVHNAKTKPREEQYNATYRVVSVLPVLHQDWLNGKEYKCKVSNDALPAPEEETISKAKGQPREPQVYTLPPSRCELTKNQVSLSCAVKGFYPSDIAVEWESNGQPENNYKTTPPVLDSDGSFFLVSKLTVDKSRWQQGNVFSCSVMHEALHNHYTQKSLSLSP light: DIQMTQSPSSLSASVGDRVTITCRASQDIHKYIAWYQQKPGQAPRLLIQYTSTLQPGVPSRFSGSGSGTDYTFTISSLQPEDIATYYCLQYEQLRTFGGGTKVEIKRTVAAPSVFIFPPSDEQLKSGTASVVCLLNNFYPREAKVQWKVDNALQSGNSQESVTEQDSKDSTYSLSSTLTLSKADYEKHKVYACEVTHQGLSSPVTKSFNRGEC
binds | – | – | – | – | – | – | H240-Kn494/L73-k0//H240-Hl514/L73-k0 (antibody, also called EGL-ART10; ART10; copies: 1 + 1 + 2) heavy 1: QDQLVQSGAEVKKPGASVKVSCKASGFNIKDTYIQWVRQAPGQGLEWMGRIDPLRKQTKYREKFEGRVTITADTSTNTAYMELSSLRSEDTAVYYCVRSGREFDYWGQGTLVTVSSASTKGPSVFPLAPSSKSTSGGTAALGCLVKDYFPEPVTVSWNSGALTSGVHTFPAVLQSSGLYSLSSVVTVPSSSLGTQTYICNVNHKPSNTKVDKKVEPKSCDKTHTCPPCPAPEFQWGPMVFLFPPKPKDVLMISRTPEVTCVVVDVSDEEPEVKFNWYVDGVEVHNAKTKPREEQYNATYRVVSVLPVLHQDWLNGKEYKCKVSNKALPAPEEKTISKAKGQPREPQVCTLPPSRDELTKNQVSLWCLVKGFYPSDIAVEWESNGQPENNYKTTPPVLDSDGSFFLYSKLTVDKSRWQQGNVFSCSVMHEALHNHYTQKSLSLSP heavy 2: QDQLVQSGAEVKKPGASVKVSCKASGFNIKDTYIQWVRQAPGQGLEWMGRIDPLRKQTKYREKFEGRVTITADTSTNTAYMELSSLRSEDTAVYYCVRSGREFDYWGQGTLVTVSSASTKGPSVFPLAPSSKSTSGGTAALGCLVKDYFPEPVTVSWNSGALTSGVHTFPAVLQSSGLYSLSSVVTVPSSSLGTQTYICNVNHKPSNTKVDKKVEPKSCDKTHTCPPCPAPELLGGPSVFLFPPKPKDVLMISRTPEVTCVVVDVSHEEPEVKFNWYVDGVEVHNAKTKPREEQYNATYRVVSVLPVLHQDWLNGKEYKCKVSNDALPAPEEETISKAKGQPREPQVYTLPPSRCELTKNQVSLSCAVKGFYPSDIAVEWESNGQPENNYKTTPPVLDSDGSFFLVSKLTVDKSRWQQGNVFSCSVMHEALHNHYTQKSLSLSP light: DIQMTQSPSSLSASVGDRVTITCRASQDIHKYIAWYQQKPGQAPRLLIQYTSTLQPGVPSRFSGSGSGTDYTFTISSLQPEDIATYYCLQYEQLRTFGGGTKVEIKRTVAAPSVFIFPPSDEQLKSGTASVVCLLNNFYPREAKVQWKVDNALQSGNSQESVTEQDSKDSTYSLSSTLTLSKADYEKHKVYACEVTHQGLSSPVTKSFNRGEC
binds | – | – | – | – | – | – | H240-Kn443/L73-k0//H240-Hl408/L73-k0 (antibody, also called EGL-ART3; ART3; copies: 1 + 1 + 2) heavy 1: QDQLVQSGAEVKKPGASVKVSCKASGFNIKDTYIQWVRQAPGQGLEWMGRIDPLRKQTKYREKFEGRVTITADTSTNTAYMELSSLRSEDTAVYYCVRSGREFDYWGQGTLVTVSSASTKGPSVFPLAPSSKSTSGGTAALGCLVKDYFPEPVTVSWNSGALTSGVHTFPAVLQSSGLYSLSSVVTVPSSSLGTQTYICNVNHKPSNTKVDKKVEPKSCDKTHTCPPCPAPEFQWGPMVFLFPPKPKDTLMISRTPEVTCVVVDVSDEEPEVKFNWYVDGVEVHNAKTKPREEQYNATYRVVSVLTVLHQDWLNGKEYKCKVSNDALPAPIEKTISKAKGQPREPQVCTLPPSRDELTKNQVSLWCLVKGFYPSDIAVEWESNGQPENNYKTTPPVLDSDGSFFLYSKLTVDKSRWQQGNVFSCSVMHEALHNHYTQKSLSLSP heavy 2: QDQLVQSGAEVKKPGASVKVSCKASGFNIKDTYIQWVRQAPGQGLEWMGRIDPLRKQTKYREKFEGRVTITADTSTNTAYMELSSLRSEDTAVYYCVRSGREFDYWGQGTLVTVSSASTKGPSVFPLAPSSKSTSGGTAALGCLVKDYFPEPVTVSWNSGALTSGVHTFPAVLQSSGLYSLSSVVTVPSSSLGTQTYICNVNHKPSNTKVDKKVEPKSCDKTHTCPPCPAPELLAGPSVFLFPPKPKDTLMISRTPEVTCVVVDVSHEEPEVKFNWYVDGVEVHNAKTKPREEQYNATYRVVSVLTVLHQDWLNGKEYKCKVSNDALPAPIEETISKAKGQPREPQVYTLPPSRCELTKNQVSLSCAVKGFYPSDIAVEWESNGQPENNYKTTPPVLDSDGSFFLVSKLTVDKSRWQQGNVFSCSVMHEALHNHYTQKSLSLSP light: DIQMTQSPSSLSASVGDRVTITCRASQDIHKYIAWYQQKPGQAPRLLIQYTSTLQPGVPSRFSGSGSGTDYTFTISSLQPEDIATYYCLQYEQLRTFGGGTKVEIKRTVAAPSVFIFPPSDEQLKSGTASVVCLLNNFYPREAKVQWKVDNALQSGNSQESVTEQDSKDSTYSLSSTLTLSKADYEKHKVYACEVTHQGLSSPVTKSFNRGEC

From US20260022175A1 (Chugai, published 2026)
